Experimental data as given in patent publication EP3574020B1 (The University of British Columbia, dated 2024).

B1: Chimeric 301-17 antibody (VH0 Vk0), mouse variable regions on human IgG4 / kappa (antibody)
heavy: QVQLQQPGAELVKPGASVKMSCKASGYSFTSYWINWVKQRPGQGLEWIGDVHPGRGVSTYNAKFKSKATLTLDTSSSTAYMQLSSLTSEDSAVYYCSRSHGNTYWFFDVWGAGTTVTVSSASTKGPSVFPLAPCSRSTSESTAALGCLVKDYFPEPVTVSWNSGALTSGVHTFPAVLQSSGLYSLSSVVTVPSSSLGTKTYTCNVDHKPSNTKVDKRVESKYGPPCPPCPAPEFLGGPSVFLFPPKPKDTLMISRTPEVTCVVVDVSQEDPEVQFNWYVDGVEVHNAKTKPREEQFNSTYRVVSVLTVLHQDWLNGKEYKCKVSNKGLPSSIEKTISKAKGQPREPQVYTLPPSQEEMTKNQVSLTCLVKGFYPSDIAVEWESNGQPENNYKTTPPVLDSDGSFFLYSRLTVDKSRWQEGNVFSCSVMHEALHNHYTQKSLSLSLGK
light: DVLMTQTPLSLPVSLGDQASISCRSSQSIVHSNGNTYLEWYLQKPGQSPKLLIYKVSNRFSGVPDRFSGSGSGTDFTLKISRVEAEDLGVYYCFQGSHVPFTFGSGTKLEIKRTVAAPSVFIFPPSDEQLKSGTASVVCLLNNFYPREAKVQWKVDNALQSGNSQESVTEQDSKDSTYSLSSTLTLSKADYEKHKVYACEVTHQGLSSPVTKSFNRGEC
notes: also called V0H0 and V0k0
B2: 301-17 mouse monoclonal antibody, hybridoma-purified IgG3 (antibody, V domains shown)
VH: QVQLQQPGAELVKPGASVKMSCKASGYSFTSYWINWVKQRPGQGLEWIGDVHPGRGVSTYNAKFKSKATLTLDTSSSTAYMQLSSLTSEDSAVYYCSRSHGNTYWFFDVWGAGTTVTVSSATTTAPS
VL: DVLMTQTPLSLPVSLGDQASISCRSSQSIVHSNGNTYLEWYLQKPGQSPKLLIYKVSNRFSGVPDRFSGSGSGTDFTLKISRVEAEDLGVYYCFQGSHVPFTFGSGTKLEIKRADA
notes: mouse IgG3 / kappa; also called mu301-17
B3: Recombinant 301-17 IgG2a (murine IgG2a backbone) (antibody)
heavy: QVQLQQPGAELVKPGASVKMSCKASGYSFTSYWINWVKQRPGQGLEWIGDVHPGRGVSTYNAKFKSKATLTLDTSSSTAYMQLSSLTSEDSAVYYCSRSHGNTYWFFDVWGAGTTVTVSSAKTTAPSVYPLAPVCGDTTGSSVTLGCLVKGYFPEPVTLTWNSGSLSSGVHTFPAVLQSDLYTLSSSVTVTSSTWPSQSITCNVAHPASSTKVDKKIEPRGPTIKPCPPCKCPAPNLLGGPSVFIFPPKIKDVLMISLSPIVTCVVVDVSEDDPDVQISWFVNNVEVHTAQTQTHREDYNSTLRVVSALPIQHQDWMSGKEFKCKVNNKDLPAPIERTISKPKGSVRAPQVYVLPPPEEEMTKKQVTLTCMVTDFMPEDIYVEWTNNGKTELNYKNTEPVLDSDGSYFMYSKLRVEKKNWVERNSYSCSVVHEGLHNHHTTKSFSRTPGK
light: DVLMTQTPLSLPVSLGDQASISCRSSQSIVHSNGNTYLEWYLQKPGQSPKLLIYKVSNRFSGVPDRFSGSGSGTDFTLKISRVEAEDLGVYYCFQGSHVPFTFGSGTKLEIKRADAAPTVSIFPPSSEQLTSGGASVVCFLNNFYPKDINVKWKIDGSERQNGVLNSWTDQDSKDSTYSMSSTLTLTKDEYERHNSYTCEATHKTSTSPIVKSFNRNEC
B4: Humanized antibody of 301-17 (VH2 Vk5), human IgG4 (S241P hinge variant) / kappa (antibody, V domains shown)
VH: QVQLVQSGAEVKKPGASVKMSCKASGYSFTSYWINWVKQRPGQGLEWIGDVHPGRGVSTYNAKFKSRATLTLDTSISTAYMELSSLRSEDTAVYYCSRSHGNTYWFFDVWGQGTTVTVSS
VL: DVLMTQSPLSLPVTLGQPASISCRSSQSIVHSNGNTYLEWYQQRPGQSPRLLIYKVSNRFSGVPDRFSGSGSGTDFTLKISRVEAEDVGVYYCFQGSHVPFTFGQGTKLEIKR
notes: also called hu301-17

Tests used:
[1] = molecular target: T1, cyclo(CGHHQKG) cyclic peptide, conjugated to BSA (also: conjugated to BSA, site not given here); assay: single cycle Biacore analysis
T1 construct: BSA is the carrier used for screening; also called cyclopeptide; Cyclo-BSA
T1 peptide: cyclo(CGHHQKG)

[2] = molecular target: T2, commercially-prepared stable A-beta42 Oligomers (SynAging) (human); assay: ProteOn biosensor; antibody captured with anti-mouse IgG or amine-coupled, AbO dilutions injected
T2 construct: Bought oligomer preparation; also called AbO; SynAging AbO

[3] = molecular target: T1, cyclo(CGHHQKG) cyclic peptide, …; assay: ProteOn biosensor; antibody amine-coupled to GLH chip, cyclo-BSA 9 nM to 111 pM
[4] = molecular target: T1, cyclo(CGHHQKG) cyclic peptide, …; assay: SPR; immobilized antibody pre-exposed to the cyclic peptide

T2 sequence (peptide, as listed by the source): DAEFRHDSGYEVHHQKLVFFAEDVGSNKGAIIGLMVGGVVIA

| Binder | Kd [1] [nM] | Kd [2] [nM] | Kd [3] [nM] | binding result [4] |
| --- | --- | --- | --- | --- |
| B1 | ~0.02 | – | – | – |
| B2 | 0.4 | 26.9 | – | – |
| B3 | – | 16.2 to 19.5 | ~0.017 | – |
| B4 | – | – | – | binds |
